Molecular target: T1, ParB (Mycobacterium tuberculosis H37Rv) (UniProt P9WIJ9)
T1 sequence: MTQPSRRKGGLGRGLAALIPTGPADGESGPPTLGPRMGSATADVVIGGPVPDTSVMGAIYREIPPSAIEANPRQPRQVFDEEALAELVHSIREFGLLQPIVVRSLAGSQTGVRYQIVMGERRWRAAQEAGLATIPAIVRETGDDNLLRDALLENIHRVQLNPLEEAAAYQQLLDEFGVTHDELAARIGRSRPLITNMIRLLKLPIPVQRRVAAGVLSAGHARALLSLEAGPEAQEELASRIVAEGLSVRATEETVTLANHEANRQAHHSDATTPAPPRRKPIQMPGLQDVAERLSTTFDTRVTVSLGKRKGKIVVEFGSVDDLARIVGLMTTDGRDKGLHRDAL
Test: EMSA

Sequence: GCGAGTGGAGGGACGGCGTGAGTGCTCCGTGGGGCCCGGTGGCCGCTGGACCGTCCGCGCTCGTAAGGTCGGGCCAGGCTTCAACTATCGAACCATTCCAGCGGGAAATGACACCACCGACACCGACGCCTGAGGCCGCGCACAATCCGACGATGAATGTTTCACGTGAAACATCGACAGAATTCGACACCCCCATCGGCGCTGCAGCAGAACGTGCGATGCG (double strand) [parS probe]
- binding: binds

From article PMC4373775
